Assay [1] addresses SelK U92C (Homo sapiens) (UniProt Q9Y6D0). The assay is described as follows: SDS-PAGE under non-reducing conditions.
Assay [2] shares this target. As to the kind of experiment: electrospray ionization mass spectrometry.
Assay [3] has the same target. As to the kind of experiment: redox titration with gel shift on non-reducing SDS-PAGE. Background: In EMSA bound probe runs differently from free probe, usually more slowly.
The target of another assay is SelK U92S (Homo sapiens) (UniProt Q9Y6D0). As to the kind of experiment: SDS-PAGE at high protein concentration.

This note sets out measurements from publication PMC4167758.

One may read the stoichiometry N as a count of units in the complex or per binding partner.

For “SelK U92C (from UniProt Q9Y6D0 2-94) (natural protein)”, the stoichiometry N with SelK U92C (Homo sapiens) [1], in the assay with SelK U92C (Homo sapiens) [2] and in the assay with SelK U92C (Homo sapiens) [3] was 2 each time.

Turning to “SelK U92S (from UniProt Q9Y6D0 2-94) (natural protein)”, the stoichiometry N with SelK U92S (Homo sapiens) turned out to be 2.
